Assay results published in patent publication US20240165282A1, “CONFORMATIONAL CONSTRAINED SOMATOSTATIN RECEPTOR 3 PEPTIDE LIGANDS AND THEIR CONJUGATES AND USES THEREOF” (STARGET PHARMA LTD., priority 2021, published 2024).
*1 amine or outer side, *2 acyl side, *3 side chain or, on linkers, in order; H or OH if unused. Bridges are numbered along the chain shown (N, C = ends). [ ]: non-standard residue; d: D form. The star is where a group is joined. DOTA = O=C(O)CN1CCN(CC(=O)O)CCN(CC(=O)*)CCN(CC(=O)O)CC1; N(2-mercaptoethyl)Gly = O=C(CN(CCS[*:3])[*:1])[*:2]

Experiments:
Experiment in all cases: cell-based or functional assay
(CR)L-RAMP1 (human) = (CR)L-RAMP1 (human) (UniProt Q16602)
(CR)R-RAMP2 (human) = (CR)R-RAMP2 (human) (UniProt P30988)
ADORA3 (human) = ADORA3 (human) (UniProt P0DMS8)
ADRA1B (human) = ADRA1B (human) (UniProt P35368)
ADRA1B (human), sequence (P35368 whole entry): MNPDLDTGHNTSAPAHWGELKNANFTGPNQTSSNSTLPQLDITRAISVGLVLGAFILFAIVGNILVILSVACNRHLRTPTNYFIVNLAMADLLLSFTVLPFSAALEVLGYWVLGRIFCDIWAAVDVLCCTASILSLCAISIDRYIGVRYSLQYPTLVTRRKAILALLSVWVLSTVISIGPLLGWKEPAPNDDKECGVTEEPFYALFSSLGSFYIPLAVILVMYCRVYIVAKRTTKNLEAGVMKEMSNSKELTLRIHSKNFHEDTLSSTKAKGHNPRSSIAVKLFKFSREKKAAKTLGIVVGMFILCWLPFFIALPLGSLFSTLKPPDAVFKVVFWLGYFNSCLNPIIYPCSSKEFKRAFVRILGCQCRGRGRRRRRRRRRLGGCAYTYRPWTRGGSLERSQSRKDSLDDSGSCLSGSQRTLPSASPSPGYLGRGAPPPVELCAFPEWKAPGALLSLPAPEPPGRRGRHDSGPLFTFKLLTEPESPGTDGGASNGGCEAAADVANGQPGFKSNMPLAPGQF

ADRA2A (human) = ADRA2A (human) (UniProt P08913)
ADRA2C (human) = ADRA2C (human) (UniProt P18825)
ADRB1 (human) = ADRB1 (human) (UniProt P08588)
AGTR1 (human) = AGTR1 (human) (UniProt P30556)
AGTR1 (human), sequence (P30556 whole entry): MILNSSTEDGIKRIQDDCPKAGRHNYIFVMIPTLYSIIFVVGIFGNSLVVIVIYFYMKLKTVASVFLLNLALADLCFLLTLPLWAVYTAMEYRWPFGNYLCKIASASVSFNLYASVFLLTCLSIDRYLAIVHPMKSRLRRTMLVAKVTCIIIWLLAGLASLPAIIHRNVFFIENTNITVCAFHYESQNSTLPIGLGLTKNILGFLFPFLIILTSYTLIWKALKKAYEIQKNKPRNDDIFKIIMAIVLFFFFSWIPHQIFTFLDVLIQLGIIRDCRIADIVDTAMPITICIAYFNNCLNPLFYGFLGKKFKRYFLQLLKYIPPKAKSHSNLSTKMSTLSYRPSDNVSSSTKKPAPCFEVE

AVPR2 (human) = AVPR2 (human) (UniProt P30518)
BDKRB2 (human) = BDKRB2 (human) (UniProt P30411)
BDKRB2 (human), sequence (P30411 whole entry): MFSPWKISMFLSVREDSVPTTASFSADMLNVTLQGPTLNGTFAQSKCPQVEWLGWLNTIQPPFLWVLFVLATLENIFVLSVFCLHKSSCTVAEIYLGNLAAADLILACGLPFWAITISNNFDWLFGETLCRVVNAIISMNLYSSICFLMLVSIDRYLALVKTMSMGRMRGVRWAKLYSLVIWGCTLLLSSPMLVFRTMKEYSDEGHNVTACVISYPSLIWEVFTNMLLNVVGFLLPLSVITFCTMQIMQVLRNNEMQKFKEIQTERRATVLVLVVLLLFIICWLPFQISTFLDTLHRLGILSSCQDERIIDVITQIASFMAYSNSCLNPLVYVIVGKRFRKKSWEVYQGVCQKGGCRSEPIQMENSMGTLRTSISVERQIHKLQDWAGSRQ

BRS3 (human) = BRS3 (human) (UniProt P32247)
C5L2 (human) = C5L2 (human) (UniProt Q9P296)
C5aR1 (human) = C5aR1 (human) (UniProt P21730)
CALCR (CR) (human) = CALCR (CR) (human) (UniProt P30988)
CCKBR (human) = CCKBR (human) (UniProt P32239)
CCR1 (human) = CCR1 (human) (UniProt P32246)
CCR3 (human) = CCR3 (human) (UniProt P51677)
CCR3 (human), sequence (P51677 whole entry): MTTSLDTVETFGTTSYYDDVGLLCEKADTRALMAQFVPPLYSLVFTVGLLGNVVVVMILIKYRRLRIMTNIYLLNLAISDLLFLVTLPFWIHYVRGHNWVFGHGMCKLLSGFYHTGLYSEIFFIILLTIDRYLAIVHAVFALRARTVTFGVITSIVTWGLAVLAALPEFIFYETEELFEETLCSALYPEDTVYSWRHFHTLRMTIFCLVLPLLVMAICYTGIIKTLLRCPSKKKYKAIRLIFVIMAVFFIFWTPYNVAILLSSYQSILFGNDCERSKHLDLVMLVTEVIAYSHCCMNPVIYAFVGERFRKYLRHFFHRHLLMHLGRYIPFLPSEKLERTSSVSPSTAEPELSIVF

CCR7 (human) = CCR7 (human) (UniProt P32248)
CHRM2 (human) = CHRM2 (human) (UniProt P08172)
CHRM2 (human), sequence (P08172 whole entry): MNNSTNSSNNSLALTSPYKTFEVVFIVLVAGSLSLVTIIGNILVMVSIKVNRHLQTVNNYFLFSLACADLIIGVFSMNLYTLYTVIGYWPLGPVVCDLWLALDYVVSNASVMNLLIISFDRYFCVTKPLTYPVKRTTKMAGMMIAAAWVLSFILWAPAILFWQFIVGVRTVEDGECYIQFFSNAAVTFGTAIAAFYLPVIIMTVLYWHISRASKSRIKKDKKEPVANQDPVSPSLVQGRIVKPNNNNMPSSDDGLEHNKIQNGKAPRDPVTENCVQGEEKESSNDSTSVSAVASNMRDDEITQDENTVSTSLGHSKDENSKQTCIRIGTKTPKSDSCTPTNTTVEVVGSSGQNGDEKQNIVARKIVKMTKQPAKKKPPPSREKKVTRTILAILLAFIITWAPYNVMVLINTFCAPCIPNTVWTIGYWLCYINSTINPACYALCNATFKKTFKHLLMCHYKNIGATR

CRTH2 (human) = CRTH2 (human) (UniProt Q9Y5Y4)
CX3CR1 (human) = CX3CR1 (human) (UniProt P49238)
DRD2L (human) = DRD2L (human) (UniProt P14416)
EDG3 (human) = EDG3 (human) (UniProt Q99500)
EDG3 (human), sequence (Q99500 whole entry): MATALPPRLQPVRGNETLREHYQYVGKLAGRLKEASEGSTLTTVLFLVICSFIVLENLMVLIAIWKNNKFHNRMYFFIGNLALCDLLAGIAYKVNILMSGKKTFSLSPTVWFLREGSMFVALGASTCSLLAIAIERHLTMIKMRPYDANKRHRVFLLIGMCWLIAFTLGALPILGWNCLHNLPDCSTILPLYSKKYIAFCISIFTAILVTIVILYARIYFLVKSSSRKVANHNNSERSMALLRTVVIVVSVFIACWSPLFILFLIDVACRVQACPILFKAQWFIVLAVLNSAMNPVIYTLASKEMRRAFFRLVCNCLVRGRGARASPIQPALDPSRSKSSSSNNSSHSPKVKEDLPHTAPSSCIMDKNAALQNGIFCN

EDG5 (human) = EDG5 (human) (UniProt O95136)
EDNRB (human) = EDNRB (human) (UniProt P24530)
EDNRB (human), sequence (P24530 27-442): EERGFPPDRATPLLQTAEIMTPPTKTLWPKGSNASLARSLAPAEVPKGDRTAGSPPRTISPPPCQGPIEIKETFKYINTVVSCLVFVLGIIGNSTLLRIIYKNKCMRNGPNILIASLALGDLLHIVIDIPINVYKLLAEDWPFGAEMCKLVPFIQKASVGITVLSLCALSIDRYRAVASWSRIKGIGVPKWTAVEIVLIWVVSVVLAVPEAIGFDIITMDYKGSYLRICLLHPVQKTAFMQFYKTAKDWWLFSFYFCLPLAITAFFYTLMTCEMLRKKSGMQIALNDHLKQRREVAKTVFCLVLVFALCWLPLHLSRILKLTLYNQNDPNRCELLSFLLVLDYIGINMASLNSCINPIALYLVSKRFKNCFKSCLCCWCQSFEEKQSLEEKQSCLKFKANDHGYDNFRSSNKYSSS

F2RL1 (human) = F2RL1 (human) (UniProt P55085)
FFAR1 (human) = FFAR1 (human) (UniProt O14842)
FFAR1 (human), sequence (O14842 whole entry): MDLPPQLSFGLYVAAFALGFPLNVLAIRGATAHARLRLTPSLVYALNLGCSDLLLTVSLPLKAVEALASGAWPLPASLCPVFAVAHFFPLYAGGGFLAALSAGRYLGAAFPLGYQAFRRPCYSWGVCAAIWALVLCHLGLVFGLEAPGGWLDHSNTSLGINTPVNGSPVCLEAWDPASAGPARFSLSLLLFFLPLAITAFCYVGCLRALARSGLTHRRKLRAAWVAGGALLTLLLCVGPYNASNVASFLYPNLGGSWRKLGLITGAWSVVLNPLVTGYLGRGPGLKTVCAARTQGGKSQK

FPR1 (human) = FPR1 (human) (UniProt P21462)
FSHR (human) = FSHR (human) (UniProt P23945)
GCGR (human) = GCGR (human) (UniProt P47871)
GHSR (human) = GHSR (human) (UniProt Q92847)
GIPR (human) = GIPR (human) (UniProt P48546)
GPR1 (human) = GPR1 (human) (UniProt P46091)
GPR119 (human) = GPR119 (human) (UniProt Q8TDV5)
HCRTR1 (human) = HCRTR1 (human) (UniProt O43613)
HRH1 (human) = HRH1 (human) (UniProt P35367)
HRH4 (human) = HRH4 (human) (UniProt Q9H3N8)
HTR1A (human) = HTR1A (human) (UniProt P08908)
HTR1B (human) = HTR1B (human) (UniProt P28222)
HTR1E (human) = HTR1E (human) (UniProt P28566)
HTR2C (human) = HTR2C (human) (UniProt P28335)
MRGPRX1 (human) = MRGPRX1 (human) (UniProt Q96LB2)
MRGPRX1 (human), sequence (Q96LB2 whole entry): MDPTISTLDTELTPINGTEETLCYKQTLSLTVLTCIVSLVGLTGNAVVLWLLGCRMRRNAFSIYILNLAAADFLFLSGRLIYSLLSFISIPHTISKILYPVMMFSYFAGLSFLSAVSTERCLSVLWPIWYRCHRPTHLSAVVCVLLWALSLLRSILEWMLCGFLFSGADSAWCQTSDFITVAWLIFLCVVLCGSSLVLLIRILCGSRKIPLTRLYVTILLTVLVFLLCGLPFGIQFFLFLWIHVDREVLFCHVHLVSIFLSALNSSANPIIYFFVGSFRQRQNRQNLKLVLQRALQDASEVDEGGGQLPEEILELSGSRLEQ

MTNR1A (human) = MTNR1A (human) (UniProt P48039)
NPBWR1 (human) = NPBWR1 (human) (UniProt P48145)
NPBWR2 (human) = NPBWR2 (human) (UniProt P48146)
OPRL1 (human) = OPRL1 (human) (UniProt P41146)
OXER1 (human) = OXER1 (human) (UniProt Q8TDS5)
OXER1 (human), sequence (Q8TDS5 whole entry): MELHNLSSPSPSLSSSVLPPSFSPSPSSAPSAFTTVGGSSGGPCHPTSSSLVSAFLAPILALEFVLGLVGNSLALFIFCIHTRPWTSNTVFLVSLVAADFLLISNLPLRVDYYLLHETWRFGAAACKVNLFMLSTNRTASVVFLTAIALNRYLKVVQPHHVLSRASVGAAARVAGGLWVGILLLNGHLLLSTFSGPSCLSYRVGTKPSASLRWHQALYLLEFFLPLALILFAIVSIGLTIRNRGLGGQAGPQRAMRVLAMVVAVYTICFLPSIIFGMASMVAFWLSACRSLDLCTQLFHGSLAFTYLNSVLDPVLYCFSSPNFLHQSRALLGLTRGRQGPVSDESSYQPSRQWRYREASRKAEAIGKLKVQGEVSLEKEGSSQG

P2RY12 (human) = P2RY12 (human) (UniProt Q9H244)
PTGER2 (human) = PTGER2 (human) (UniProt P43116)
PTGFR (human) = PTGFR (human) (UniProt P43088)
PTGIR (human) = PTGIR (human) (UniProt P43119)
PTHR1 (human) = PTHR1 (human) (UniProt Q03431)
TACR1 (human) = TACR1 (human) (UniProt P25103)
TRHR (human) = TRHR (human) (UniProt P34981)
VIPR1 (human) = VIPR1 (human) (UniProt P32241)
VIPR1 (human), sequence (P32241 31-457): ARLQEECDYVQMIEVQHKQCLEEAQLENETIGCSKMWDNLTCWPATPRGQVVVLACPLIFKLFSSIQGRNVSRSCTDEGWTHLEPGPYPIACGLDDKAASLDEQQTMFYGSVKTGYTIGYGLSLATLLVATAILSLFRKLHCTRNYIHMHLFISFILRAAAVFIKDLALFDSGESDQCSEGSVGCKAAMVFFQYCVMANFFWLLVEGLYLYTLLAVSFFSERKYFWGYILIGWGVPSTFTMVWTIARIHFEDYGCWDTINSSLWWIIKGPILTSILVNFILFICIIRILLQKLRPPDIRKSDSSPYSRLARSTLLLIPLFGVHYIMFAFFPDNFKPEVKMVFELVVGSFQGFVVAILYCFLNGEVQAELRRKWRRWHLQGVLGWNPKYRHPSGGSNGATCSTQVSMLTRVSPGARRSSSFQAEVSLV

[1] = molecular target: human cloned somatostatin receptor 3 (human) (UniProt P32745)
human cloned somatostatin receptor 3 (human), sequence (P32745 whole entry): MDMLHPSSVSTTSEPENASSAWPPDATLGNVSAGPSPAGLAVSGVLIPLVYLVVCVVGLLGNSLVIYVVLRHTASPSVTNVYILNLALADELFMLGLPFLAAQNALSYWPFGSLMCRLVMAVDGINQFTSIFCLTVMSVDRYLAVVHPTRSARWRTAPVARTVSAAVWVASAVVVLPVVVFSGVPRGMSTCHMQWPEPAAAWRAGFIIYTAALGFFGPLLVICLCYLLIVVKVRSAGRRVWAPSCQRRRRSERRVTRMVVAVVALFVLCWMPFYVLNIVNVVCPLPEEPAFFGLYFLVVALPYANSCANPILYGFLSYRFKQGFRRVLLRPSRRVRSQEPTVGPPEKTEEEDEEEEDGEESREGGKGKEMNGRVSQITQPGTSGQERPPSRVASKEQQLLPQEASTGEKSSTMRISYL

Work on {DOTA}-[dF]RCF[dW]KTF[N(2-mercaptoethyl)Gly]-NH2 (disulfide 3-9; also: Ga complex of DOTA) [SEQ ID NO: 4] yielded a % Activity (agonist mode, 1 µM) ((CR)L-RAMP1 (human)) of -1%, a % Activity (agonist mode, 1 µM) ((CR)R-RAMP2 (human)) of 0% and a % Activity (agonist mode, 1 µM) (ADORA3 (human)) of -6%. It also gave a % Activity (agonist mode, 1 µM) (ADRA1B (human)) of -2%, a % Activity (agonist mode, 1 µM) (ADRA2A (human)) of 3% and a % Activity (agonist mode, 1 µM) (ADRA2C (human)) of -8%. The % Activity (agonist mode, 1 µM) (ADRB1 (human)) was 1%, the % Activity (agonist mode, 1 µM) (AGTR1 (human)) was -2% and the % Activity (agonist mode, 1 µM) (AVPR2 (human)) was 0%. For the same binder, the % Activity (agonist mode, 1 µM) (BDKRB2 (human)) was 0%, the % Activity (agonist mode, 1 µM) (BRS3 (human)) was 1% and the % Activity (agonist mode, 1 µM) (C5L2 (human)) was -1%. The % Activity (agonist mode, 1 µM) (C5aR1 (human)) was 0%, the % Activity (agonist mode, 1 µM) (CALCR (CR) (human)) was 0% and the % Activity (agonist mode, 1 µM) (CCKBR (human)) was 2%. For the same binder, the % Activity (agonist mode, 1 µM) (CCR1 (human)) was 3%, the % Activity (agonist mode, 1 µM) (CCR3 (human)) was 2% and the % Activity (agonist mode, 1 µM) (CCR7 (human)) was 1%. It also gave a % Activity (agonist mode, 1 µM) (CHRM2 (human)) of 0%, a % Activity (agonist mode, 1 µM) (CRTH2 (human)) of -1% and a % Activity (agonist mode, 1 µM) (CX3CR1 (human)) of 0%. The % Activity (agonist mode, 1 µM) (DRD2L (human)) was -1%, the % Activity (agonist mode, 1 µM) (EDG3 (human)) was -1% and the % Activity (agonist mode, 1 µM) (EDG5 (human)) was -2%. For the same binder, the % Activity (agonist mode, 1 µM) (EDNRB (human)) was 0%, the % Activity (agonist mode, 1 µM) (F2RL1 (human)) was -4% and the % Activity (agonist mode, 1 µM) (FFAR1 (human)) was -4%. It also gave a % Activity (agonist mode, 1 µM) (FPR1 (human)) of -1%, a % Activity (agonist mode, 1 µM) (FSHR (human)) of 3% and a % Activity (agonist mode, 1 µM) (GCGR (human)) of -2%. For the same binder, the % Activity (agonist mode, 1 µM) (GHSR (human)) was -1%, the % Activity (agonist mode, 1 µM) (GIPR (human)) was -2% and the % Activity (agonist mode, 1 µM) (GPR1 (human)) was 0%. The % Activity (agonist mode, 1 µM) (GPR119 (human)) was 19%, the % Activity (agonist mode, 1 µM) (HCRTR1 (human)) was 0% and the % Activity (agonist mode, 1 µM) (HRH1 (human)) was -1%. For the same binder, the % Activity (agonist mode, 1 µM) (HRH4 (human)) was -2%, the % Activity (agonist mode, 1 µM) (HTR1A (human)) was 0% and the % Activity (agonist mode, 1 µM) (HTR1B (human)) was -1%. For the same binder, the % Activity (agonist mode, 1 µM) (HTR1E (human)) was 1%, the % Activity (agonist mode, 1 µM) (HTR2C (human)) was 0% and the % Activity (agonist mode, 1 µM) (MRGPRX1 (human)) was 0%. The % Activity (agonist mode, 1 µM) (MTNR1A (human)) was -7%, the % Activity (agonist mode, 1 µM) (NPBWR1 (human)) was 2% and the % Activity (agonist mode, 1 µM) (NPBWR2 (human)) was 1%. The % Activity (agonist mode, 1 µM) (OPRL1 (human)) was -3%, the % Activity (agonist mode, 1 µM) (OXER1 (human)) was -2% and the % Activity (agonist mode, 1 µM) (P2RY12 (human)) was 1%. The % Activity (agonist mode, 1 µM) (PTGER2 (human)) was 1%, the % Activity (agonist mode, 1 µM) (PTGFR (human)) was 0% and the % Activity (agonist mode, 1 µM) (PTGIR (human)) was 0%. The % Activity (agonist mode, 1 µM) (PTHR1 (human)) was 0%, the % Activity (agonist mode, 1 µM) (TACR1 (human)) was 0% and the % Activity (agonist mode, 1 µM) (TRHR (human)) was 3%. It also gave a % Activity (agonist mode, 1 µM) (VIPR1 (human)) of 0%, a % Activity (agonist mode, 1 µM) [1] of 200% and a Cellular Internalization EC50 (β-Arrestin Luminescence Assay) [1] of 16 nM. The Efficacy - maximal response [1] was 75200 RLU and the intensity of beta-arrestin response against SRIF-14 [1] was 2 fold.
